Source: patent US6087166

Experiments:
Test in all cases: cell_activity
[1] = test system: TetR-GF (tTA6) (/ HSV fusion); conditions: relative to tTA; -Tc 1500, +Tc 28
[2] = test system: TetR-FG (tTA7) (/ HSV fusion); conditions: relative to tTA; -Tc 88, +Tc 24
[3] = test system: TetR-FFFF (tTA1) (/ HSV fusion); conditions: relative to tTA; -Tc 607264, +Tc 33
[4] = test system: TetR-FGY (tTA5) (/ HSV fusion); conditions: relative to tTA; -Tc 12080, +Tc 16
[5] = test system: TetR-FF (tTA3) (/ HSV fusion); conditions: relative to tTA; -Tc 102828, +Tc 27
[6] = test system: TetR-FFF (tTA2) (/ HSV fusion); conditions: relative to tTA; -Tc 259556, +Tc 33
[7] = test system: TetR-VP16 (tTA) (/ HSV fusion); conditions: luciferase -Tc 265410, +Tc 20
[8] = test system: TetR-GFY (tTA4) (/ HSV fusion); conditions: relative to tTA; -Tc 37217, +Tc 25

“PhCMV*-1 promoter (tet operators, luciferase reporter in HeLa X1/6)” was tested. Which activity [1] did it give?
The activity was 0.6%.

What about the activity [2] of the same substance?
Its activity is 0.03%.

And the activity [3]?
Its activity is 230%.

What about the activity [4] of the same substance?
The activity was 4.6%.

What about the activity [5] of the same substance?
The activity was 39%.

What about the activity [6] of the same substance?
Its activity is 98%.

What about the activity [7] of the same substance?
Its activity is 100%.

What about the activity [8] of the same substance?
The activity was 14%.
